These results are taken from article PMC8635412.

For assay [1], the target named is Biotinylated UBE3A HECT domain Q588E (METRIS) (human). In words: METRIS (mechanically transduced immunosorbent assay, rolling magnetic probes); biotinylated ubiquitin on streptavidin-coated ferromagnetic beads rolling on avidin-coated slides coated with biotinylated UBE3A HECT domain; rotating magnetic field 1 Hz for 5 s; read-out rolling parameter (dimensionless).

The target in assay [2] is Biotinylated UBE3A HECT domain, wild type (METRIS) (human). Described as above.

Consider “Biotinylated Cys-ubiquitin (ubiquitin variant with an N-terminal cysteine) on streptavidin-coated ferromagnetic particles (from UniProt P0CG48 1-76) (natural protein)”, for which the rolling parameter (ζ) in assay [1] was 0.247.

As for “Biotinylated Cys-ubiquitin (ubiquitin variant with an N-terminal cysteine) on streptavidin-coated ferromagnetic particles (from UniProt P0CG48 1-76)”, the rolling parameter (ζ) in assay [2] came out at 0.178.
